The numbers were not newly measured in publication PMC8314067, which cites them from elsewhere.

Series [1] has as its target type I receptor complex (IL-4Rα/γc) (Homo sapiens) (UniProt P24394).
Series [2] deals with type II receptor complex (IL-4Rα/IL-13Rα1) (Homo sapiens) (UniProt P24394).
The target is the same in series [3]. The source holds these as a separate data set.

Where two headings read alike, the source gives them in different places.

As usually defined, the Kd is the equilibrium constant for the complex coming apart. Consider IL-4 (from UniProt P05112), for which the Kd in series [1] is 559 nM; in series [2], 487 nM.

Turning to IL-13 (from UniProt P35225), in series [3], the Kd was 20 nM.
